{"source": "patent US12099068B2", "about": "“Biomarkers for graft-versus-host disease” (Incyte Corporation, priority 2018, dated 2024)", "molecules": {"B1": {"name": "ERBB2IP (protein, UniProt Q96RT1 1-1412, looked up)", "Erbin": "MTTKRSLFVRLVPCRCLRGEEETVTTLDYSHCSLEQVPKEIFTFEKTLEELYLDANQIEELPKQLFNCQSLHKLSLPDNDLTTLPASIANLINLRELDVSKNGIQEFPENIKNCKVLTIVEASVNPISKLPDGFSQLLNLTQLYLNDAFLEFLPANFGRLTKLQILELRENQLKMLPKTMNRLTQLERLDLGSNEFTEVPEVLEQLSGLKEFWMDANRLTFIPGFIGSLKQLTYLDVSKNNIEMVEEGISTCENLQDLLLSSNSLQQLPETIGSLKNITTLKIDENQLMYLPDSIGGLISVEELDCSFNEVEALPSSIGQLTNLRTFAADHNYLQQLPPEIGSWKNITVLFLHSNKLETLPEEMGDMQKLKVINLSDNRLKNLPFSFTKLQQLTAMWLSDNQSKPLIPLQKETDSETQKMVLTNYMFPQQPRTEDVMFISDNESFNPSLWEEQRKQRAQVAFECDEDKDEREAPPREGNLKRYPTPYPDELKNMVKTVQTIVHRLKDEETNEDSGRDLKPHEDQQDINKDVGVKTSESTTTVKSKVDEREKYMIGNSVQKISEPEAEISPGSLPVTANMKASENLKHIVNHDDVFEESEELSSDEEMKMAEMRPPLIETSINQPKVVALSNNKKDDTKETDSLSDEVTHNSNQNNSNCSSPSRMSDSVSLNTDSSQDTSLCSPVKQTHIDINSKIRQEDENFNSLLQNGDILNSSTEEKFKAHDKKDFNLPEYDLNVEERLVLIEKSVDSTATADDTHKLDHINMNLNKLITNDTFQPEIMERSKTQDIVLGTSFLSINSKEETEHLENGNKYPNLESVNKVNGHSEETSQSPNRTEPHDSDCSVDLGISKSTEDLSPQKSGPVGSVVKSHSITNMEIGGLKIYDILSDNGPQQPSTTVKITSAVDGKNIVRSKSATLLYDQPLQVFTGSSSSSDLISGTKAIFKFDSNHNPEEPNIIRGPTSGPQSAPQIYGPPQYNIQYSSSAAVKDTLWHSKQNPQIDHASFPPQLLPRSESTENQSYAKHSANMNFSNHNNVRANTAYHLHQRLGPARHGEMWAISPNDRLIPAVTRSTIQRQSSVSSTASVNLGDPGSTRRAQIPEGDYLSYREFHSAGRTPPMMPGSQRPLSARTYSIDGPNASRPQSARPSINEIPERTMSVSDFNYSRTSPSKRPNARVGSEHSLLDPPGKSKVPRDWREQVLRHIEAKKLEKKHPQTSSSGDPCQDGIFISGQQNYSSATLSHKDVPPDSLMKMPLSNGQMGQPLRPQANYSQIHHPPQASVARHPSREQLIDYLMLKVAHQPPYTQPHCSPRQGHELAKQEIRVRVEKDPELGFSISGGVGGRGNPFRPDDDGIFVTRVQPEGPASKLLQPGDKIIQANGYSFINIEHGQAVSLLKTFQNTVELIIVREVSS"}, "B2": {"name": "FAM3C (protein, UniProt Q92520 25-227, looked up)", "Protein FAM3C": "QVFEIKMDASLGNLFARSALDTAARSTKPPRYKCGISKACPEKHFAFKMASGAANVVGPKICLEDNVLMSGVKNNVGRGINVALANGKTGEVLDTKYFDMWGGDVAPFIEFLKAIQDGTIVLMGTYDDGATKLNDEARRLIADLGSTSITNLGFRDNWVFCGGKGIKTKSPFEQHIKNNKDTNKYEGWPEVVEMEGCIPQKQD"}, "B3": {"name": "CD177 (protein, UniProt Q8N6Q3 22-408, looked up)", "CD177 antigen": "LLCQFGTVQHVWKVSDLPRQWTPKNTSCDSGLGCQDTLMLIESGPQVSLVLSKGCTEAKDQEPRVTEHRMGPGLSLISYTFVCRQEDFCNNLVNSLPLWAPQPPADPGSLRCPVCLSMEGCLEGTTEEICPKGTTHCYDGLLRLRGGGIFSNLRVQGCMPQPGCNLLNGTQEIGPVGMTENCNRKDFLTCHRGTTIMTHGNLAQEPTDWTTSNTEMCEVGQVCQETLLLLDVGLTSTLVGTKGCSTVGAQNSQKTTIHSAPPGVLVASYTHFCSSDLCNSASSSSVLLNSLPPQAAPVPGDRQCPTCVQPLGTCSSGSPRMTCPRGATHCYDGYIHLSGGGLSTKMSIQGCVAQPSSFLLNHTRQIGIFSAREKRDVQPPASQHEGG"}, "B4": {"name": "SNAP23 (protein, UniProt O00161 1-211, looked up)", "Synaptosomal-associated …": "MDNLSSEEIQQRAHQITDESLESTRRILGLAIESQDAGIKTITMLDEQKEQLNRIEEGLDQINKDMRETEKTLTELNKCCGLCVCPCNRTKNFESGKAYKTTWGDGGENSPCNVVSKQPGPVTNGQLQQPTTGAASGGYIKRITNDAREDEMEENLTQVGSILGNLKDMALNIGNEIDAQNPQIKRITDKADTNRDRIDIANARAKKLIDS"}, "B5": {"name": "MILR1 (protein, UniProt Q7Z6M3 20-343, looked up)", "Allergin-1": "RKAVLDCEAMKTNEFPSPCLDSKTKVVMKGQNVSMFCSHKNKSLQITYSLFRRKTHLGTQDGKGEPAIFNLSITEAHESGPYKCKAQVTSCSKYSRDFSFTIVDPVTSPVLNIMVIQTETDRHITLHCLSVNGSLPINYTFFENHVAISPAISKYDREPAEFNLTKKNPGEEEEYRCEAKNRLPNYATYSHPVTMPSTGGDSCPFCLKLLLPGLLLLLVVIILILAFWVLPKYKTRKAMRNNVPRDRGDTAMEVGIYANILEKQAKEESVPEVGSRPCVSTAQDEAKHSQELQYATPVFQEVAPREQEACDSYKSGYVYSELNF"}, "B6": {"name": "VEGFD (protein, UniProt O43915 89-205, looked up)", "Vascular endothelial growth …": "FAATFYDIETLKVIDEEWQRTQCSPRETCVEVASELGKSTNTFFKPPCVNVFRCGGCCNEESLICMNTSTSYISKQLFEISVPLTSVPELVPVKVANHTGCKCLPTAPRHPYSIIRR"}, "B7": {"name": "KLRD1 (protein, UniProt Q13241 1-179, looked up)", "Natural killer cells antigen …": "MAVFKTTLWRLISGTLGIICLSLMSTLGILLKNSFTKLSIEPAFTPGPNIELQKDSDCCSCQEKWVGYRCNCYFISSEQKTWNESRHLCASQKSSLLQLQNTDELDFMSSSQQFYWIGLSYSEEHTAWLWENGSALSQYLFPSFETFNTKNCIAYNPNGNALDESCEDKNRYICKQQLI"}, "B8": {"name": "MIF (protein, UniProt P14174 2-115, looked up)", "Macrophage migration …": "PMFIVNTNVPRASVPDGFLSELTQQLAQATGKPPQYIAVHVVPDQLMAFGGSSEPCALCSLHSIGKIGGAQNRSYSKLLCGLLAERLRISPDRVYINYYDMNAANVGWNNSTFA"}, "B9": {"name": "GDF-2 (protein, UniProt Q9UK05 320-429, looked up)", "Growth/differentiation factor …": "SAGAGSHCQKTSLRVNFEDIGWDSWIIAPKEYEAYECKGGCFFPLADDVTPTKHAIVQTLVHLKFPTKVGKACCVPTKLSPISVLYKDDMGVPTLKYHYEGMSVAECGCR"}, "B10": {"name": "KLK10 (protein, UniProt O43240 31-276, looked up)", "Kallikrein-10": "AEAALLPQNDTRLDPEAYGSPCARGSQPWQVSLFNGLSFHCAGVLVDQSWVLTAAHCGNKPLWARVGDDHLLLLQGEQLRRTTRSVVHPKYHQGSGPILPRRTDEHDLMLLKLARPVVLGPRVRALQLPYRCAQPGDQCQVAGWGTTAARRVKYNKGLTCSSITILSPKECEVFYPGVVTNNMICAGLDRGQDPCQSDSGGPLVCDETLQGILSWGVYPCGSAQHPAVYTQICKYMSWINKVIRSN"}}}
{"system": "plasma proteins", "assay": "Plasma proteins modulated between baseline and day 28 in responders (CR, VGPR, PR; n = 19), Example 6 (Table 13)", "assay_type": "in vivo, human", "details": "plasma protein (OLINK NPX); responders (CR, VGPR, PR; n = 19); itacitinib 200 mg or 300 mg QD with corticosteroids; day 28 vs baseline", "outline": "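Longitudinal comparison, day 28 versus baseline, with steroid-naive (N=10) and steroid-refractory (N=18) patients combined. Proteins measured by OLINK proximity extension, log2 normalized protein expression. Differences tested by t tests, ANOVA, Pearson correlation, P<0.05 significant.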"}
{"molecule": "B1", "Fold Change, Decreased Expression from Baseline to Day 28": "−1.7337"}
{"molecule": "B2", "Fold Change, Increased Expression from Baseline to Day 28": 1.3109}
{"molecule": "B3", "Fold Change, Decreased Expression from Baseline to Day 28": "−1.768"}
{"molecule": "B4", "Fold Change, Decreased Expression from Baseline to Day 28": "−1.5751"}
{"molecule": "B5", "Fold Change, Decreased Expression from Baseline to Day 28": "−1.3829"}
{"molecule": "B6", "Fold Change, Increased Expression from Baseline to Day 28": 1.147}
{"molecule": "B7", "Fold Change, Decreased Expression from Baseline to Day 28": "−1.8117"}
{"molecule": "B8", "Fold Change, Decreased Expression from Baseline to Day 28": "−1.7486"}
{"molecule": "B9", "Fold Change, Increased Expression from Baseline to Day 28": 1.3656}
{"molecule": "B10", "Fold Change, Increased Expression from Baseline to Day 28": 1.2102}
